Experimental data published in patent US20210063414A1, “METHODS FOR PREVENTING AND/OR TREATING BONE LOSS CONDITIONS BY MODULATING IRISIN” (Dana-Farber Cancer Institute, Inc., priority 2018, published 2021).

How the values were obtained:
[1] = test system: primary inguinal fat cells; assay: Ucp1 mRNA in primary inguinal fat cells; type: cell-based, mice; details: irisin during 6 days differentiation
Experimental: FIG. 18A-FIG. 18B show mRNA and protein levels of indicated genes. 1 mg/kg irisin was injected to 8-week old mice every other day for 6 days. mRNA levels of indicated genes in inguinal fat were analyzed by qRT-PCR. Cyclophilin was used for housekeeping gene (FIG. 18A). Inguinal fats were also lysed to detect the indicated protein level using immunoblot analysis (FIG. 18B). FIGS. 18C and 18D show mRNA and protein levels of indicated genes. Mice were treated and analyzed as (A-B) with addition of coinjection of […] control RGD peptide or cyclo RGDyK (cRGDyK). mRNA levels of indicated genes in inguinal fat were analyzed by qRT-PCR. Cyclophilin was used for house-keeping gene (FIG. 18C). Inguinal fats were also lysed to detect the indicated protein level using immunoblot analysis (FIG. 18D). […] Ucp1 mRNA level was analyzed by qRT-PCR. […]
Inguinal fat tissue from 6 weeks old mice was dissected and washed with PBS, minced and digested for 1 hour at 37° C. in PBS containing 10 mM CaCl2, 2.4 U/ml dispase II (Roche) and 10 mg/ml collagenase D (Roche). […] After that, cells were maintained in 1 μM rosiglitazone in the presence of 0, 0.5, 5 or 50 ng/ml recombinant […] his-tag irisin protein for 4 days with medium change every other day. mRNA levels were analyzed as described in gene expression analysis. […]

3T3 F442A adipose cells = assay: Integrin-like signaling in adipose cells, immunoblot; type: cell-based, murine; details: irisin 10 minutes
Experimental: Differentiated 3T3 F442A adipose cells were incubated in serum free medium for 4 hours followed by treatment of indicated concentrations of irisin for 10 minutes. Cells were lysed to detect the indicated protein level using immunoblot analysis.
Certain materials and methods were used to generate the results described herein. For example, the data shown in FIG. 1A resulted from MLO-Y4 (an osteocyte-like cell line) cells treated with the indicated concentration of irisin and hydrogen peroxide for 4 hours. Cells were stained with Hoechst 33342 (ThermoFisher Scientific, catalog number H3570) and Eth-D1 (ThermoFisher Scientific, catalog number E1169) and analyzed to determine the percentage of cell death using ImageJ. […] Co-precipitated irisin was analyzed by immunoblot analysis against flag tag (Sigma Aldrich, catalog number A8592). The data shown in FIGS. 5A and 5B were generated from MLO-Y4 cells treated and analyzed as in the experiments used to generate the data shown in FIG. 2D, except that pre-treatment of 100 nM RGDS (FIG. 5A) or echistatin (R & D Systems Inc., catalog number 3202/100U) (FIG. 5B) for 10 minutes was performed before irisin treatment. […] Sclerostin mRNA level was analyzed by qPCR (FIG. 7A). […] Epididymal fats were collected, RNAs were extracted from the tissues, and mRNA levels of the indicated genes were analyzed by qPCR. […]

B1: irisin: secreted cleaved form of FNDC5; recombinant human/mouse irisin with C-terminal his tag produced in HEK293 cells (protein)
chain: DSPSAPVNVTVRHLKANSAVVSWDVLEDEVVIGFAISQQKKDVRMLRFIQEVNTTTRSCALWDLEEDTEYIVHVQAISIQGQSPASEPVLFKTPREAEKMASKNKDEVTMKE
modifications: left off: small tags and cut ends
notes: secreted cleaved form of FNDC5; recombinant human/mouse irisin with C-terminal his tag produced in HEK293 cells
gene expression of Ucp1 [1]: increased the gene expression of Ucp1
irisin dose at which phosphorylation of FAK and CREB were observed (3T3 F442A adipose cells): 30 pM
